Measured values from the Human Domainome abundance scans (Beltran et al. 2025).
± gives the uncertainty stated by the source.

B1: CD2-associated protein, residues 109 to 169; numbered along this chain, Q9Y5K6 (parent)
chain: KKRQCKVLFEYIPQNEDELELKVGDIIDINEEVEEGWWSGTLNNKLGLFPSNFVKELEVTD

Variants of: B1
Experiment: abundance fitness (aPCA) (normalised: wild type 0, dead -1); higher = more abundant; growth selection in yeast, the domain comes from the species named
Conditions: Homo sapiens

Variant	abundance fitness
L19M	-0.319 ± 0.29
L19E	-0.641 ± 0.34
L19H	-0.73 ± 0.36
L19K	-0.727 ± 0.43
L19A	-0.906 ± 0.43
L19S	-0.826 ± 0.45
L19I	-0.063 ± 0.33
L19W	-1.18 ± 0.42
L19R	-0.68 ± 0.17
L19G	-0.508 ± 0.21
E20V	-0.435 ± 0.25
E20W	0.012 ± 0.15
E20I	-0.502 ± 0.34
E20L	-0.157 ± 0.16
E20K	-0.002 ± 0.46
E20T	-0.409 ± 0.24
E20S	-0.317 ± 0.17
E20G	-0.369 ± 0.19
E20R	-0.125 ± 0.17
E20M	-0.229 ± 0.24
E20H	-0.214 ± 0.32
E20A	-0.015 ± 0.18
E20C	0.107 ± 0.24
G24A	-0.783 ± 0.28

Variant	abundance fitness
G24D	-0.252 ± 0.25
G24L	-0.781 ± 0.22
G24T	-0.559 ± 0.27
G24I	-0.226 ± 0.22
G24E	-0.227 ± 0.23
G24R	-0.735 ± 0.25
G24F	-0.57 ± 0.32
G24Y	-0.56 ± 0.4
G24W	-0.764 ± 0.27
G24P	-0.838 ± 0.46
G24S	-0.611 ± 0.17
G24V	-0.615 ± 0.26
E35M	-0.169 ± 0.25
E35K	-0.352 ± 0.17
E35Y	-0.395 ± 0.3
E35L	-0.452 ± 0.13
E35S	0.213 ± 0.13
E35Q	-0.153 ± 0.19
E35D	-0.146 ± 0.33
E35A	-0.226 ± 0.2
E35V	-0.15 ± 0.098
E35H	-0.318 ± 0.35
E35T	-0.185 ± 0.15
E35N	-0.12 ± 0.26

Variant	abundance fitness
E35P	-0.139 ± 0.22
E35C	0.015 ± 0.15
E35R	-0.15 ± 0.12
L21R	-0.861 ± 0.26
L21F	-0.826 ± 0.4
L21M	-0.319 ± 0.37
L21Q	-0.893 ± 0.42
L21N	-0.355 ± 0.29
L21G	-0.348 ± 0.16
L21V	-0.678 ± 0.22
L21I	-0.4 ± 0.16
L21S	-0.719 ± 0.21
L21A	-0.838 ± 0.19
Q14V	-0.338 ± 0.27
Q14W	-0.788 ± 0.32
E34Y	-0.126 ± 0.22
E34T	0.008 ± 0.11
E34W	-0.347 ± 0.15
E34A	-0.167 ± 0.15
E34D	-0.3 ± 0.15
E34V	-0.05 ± 0.13
E34H	0.179 ± 0.14
E34M	-0.045 ± 0.19
E34Q	-0.147 ± 0.23

Variant	abundance fitness
E34I	-0.247 ± 0.21
E34K	0.299 ± 0.3
E34S	0.016 ± 0.11
E34G	-0.067 ± 0.16
E34N	-0.337 ± 0.44
E34L	-0.611 ± 0.28
E34F	-0.393 ± 0.3
I27Y	-0.684 ± 0.49
I27W	-0.913 ± 0.24
I27P	-0.61 ± 0.33
I27G	-0.939 ± 0.44
I27T	-0.902 ± 0.27
I27K	-1.03 ± 0.42
I27E	-0.951 ± 0.43
I27C	-0.692 ± 0.32
I27N	-0.542 ± 0.45
I27H	-0.614 ± 0.42
I27M	-0.716 ± 0.24
I27Q	-0.541 ± 0.19
I27V	0.03 ± 0.32
I27A	-0.608 ± 0.18
I27S	-0.641 ± 0.2
I27L	-0.436 ± 0.11
I29V	0.085 ± 0.35

Variant	abundance fitness
I29H	-0.482 ± 0.28
I29K	-0.63 ± 0.26
I29G	-0.31 ± 0.24
I29S	-0.737 ± 0.22
I29F	-0.274 ± 0.15
I29L	-0.219 ± 0.077
I29R	-0.678 ± 0.22
I29Q	-0.823 ± 0.27
I29E	-0.78 ± 0.36
I29A	-0.833 ± 0.35
I29M	0.038 ± 0.16
I29W	-0.693 ± 0.2
I29T	-0.543 ± 0.19
I29C	-0.57 ± 0.28
I29N	-0.431 ± 0.21
I29P	-0.625 ± 0.21
I29Y	-0.886 ± 0.31
D17F	-0.249 ± 0.47
D17S	0.289 ± 0.14
D17A	-0.142 ± 0.1
D17V	0.051 ± 0.14
D17P	-0.518 ± 0.21
D17R	0.076 ± 0.16
D17K	-0.583 ± 0.45

Variant	abundance fitness
D17E	0.128 ± 0.11
D17Q	-0.313 ± 0.36
D17M	0.001 ± 0.26
D17Y	-0.192 ± 0.38
D17G	-0.092 ± 0.12
D17L	-0.13 ± 0.13
D17H	-0.343 ± 0.24
D17T	-0.298 ± 0.46
K22L	-0.952 ± 0.38
K22C	-0.08 ± 0.39
K22R	-0.244 ± 0.16
K22Q	-0.406 ± 0.19
K22E	-0.66 ± 0.38
K22G	-0.182 ± 0.27
K22P	-0.612 ± 0.43
K22V	-0.388 ± 0.28
K22S	-0.273 ± 0.15
K22W	-0.448 ± 0.23
K22H	0.219 ± 0.29
K22T	0.216 ± 0.24
K22I	-0.308 ± 0.44
N30Q	-0.043 ± 0.19
N30A	-0.305 ± 0.47
N30S	-0.11 ± 0.1

Variant	abundance fitness
N30E	0.302 ± 0.24
N30C	-0.256 ± 0.42
N30M	-0.151 ± 0.18
N30D	-0.123 ± 0.29
N30V	0.101 ± 0.15
N30R	-0.171 ± 0.11
N30P	-0.438 ± 0.32
W38N	-0.605 ± 0.26
W38K	-0.669 ± 0.2
W38I	-0.057 ± 0.15
W38R	-0.586 ± 0.11
W38S	-0.49 ± 0.092
W38P	-0.787 ± 0.31
W38D	-0.587 ± 0.33
W38M	-0.223 ± 0.11
W38A	-0.752 ± 0.22
W38H	-0.679 ± 0.29
W38F	-0.263 ± 0.12
W38C	-0.385 ± 0.18
W38Q	-0.55 ± 0.15
W38G	-0.569 ± 0.16
I26S	-0.623 ± 0.12
I26T	-0.495 ± 0.13
I26Q	-0.744 ± 0.25

Variant	abundance fitness
I26D	-0.599 ± 0.31
I26P	-0.818 ± 0.46
I26K	-0.624 ± 0.17
I26E	-0.484 ± 0.2
I26G	-1.03 ± 0.25
I26M	-0.369 ± 0.12
I26V	-0.262 ± 0.11
I26H	-0.391 ± 0.44
I26W	-0.442 ± 0.28
I26A	-0.912 ± 0.27
I26C	-0.722 ± 0.29
I26L	-0.245 ± 0.096
I26R	-0.813 ± 0.14
E32L	-0.689 ± 0.42
E32T	-0.094 ± 0.18
E32I	-0.28 ± 0.41
E32K	-0.188 ± 0.2
E32C	-0.274 ± 0.3
E32M	0.178 ± 0.19
E32V	-0.155 ± 0.3
E32R	-0.407 ± 0.25
E32G	-0.188 ± 0.17
E32W	-0.374 ± 0.31
E32S	-0.091 ± 0.16

Variant	abundance fitness
E32A	-0.38 ± 0.24
N15K	-0.041 ± 0.18
N15Y	-0.558 ± 0.27
N15C	-0.3 ± 0.13
N15F	-0.448 ± 0.15
N15H	-0.148 ± 0.16
N15E	-0.275 ± 0.21
N15I	-0.851 ± 0.22
N15P	-0.639 ± 0.17
N15W	-0.483 ± 0.15
N15M	-0.614 ± 0.36
N15S	-0.04 ± 0.086
N15T	-0.097 ± 0.1
N15A	0.041 ± 0.14
N15G	-0.19 ± 0.14
N15L	-0.468 ± 0.1
N15Q	-0.26 ± 0.13
N15R	0.153 ± 0.078
V23A	-0.595 ± 0.44
V23T	-0.144 ± 0.18
V23G	-0.458 ± 0.2
V23S	-0.414 ± 0.21
V23R	-0.092 ± 0.14
V23L	-0.369 ± 0.2

Variant	abundance fitness
V23P	-0.08 ± 0.28
V23F	-0.687 ± 0.33
V23H	-0.677 ± 0.38
V23I	-0.143 ± 0.24
V23M	-0.34 ± 0.17
V23Q	-0.071 ± 0.17
V23K	0.117 ± 0.19
V33F	-0.242 ± 0.23
V33R	0.108 ± 0.17
V33T	-0.452 ± 0.24
V33Y	-0.349 ± 0.4
V33M	0.085 ± 0.27
V33E	-0.192 ± 0.2
V33K	-0.262 ± 0.15
V33S	-0.186 ± 0.16
V33Q	-0.55 ± 0.29
V33I	0.129 ± 0.23
V33H	-0.404 ± 0.34
V33A	-0.132 ± 0.23
V33G	-0.483 ± 0.43
W37E	0 ± 0.24
W37Y	-0.448 ± 0.48
W37M	-0.267 ± 0.12
W37H	-0.656 ± 0.31

Variant	abundance fitness
W37I	-0.524 ± 0.24
W37R	-0.375 ± 0.14
W37G	-0.74 ± 0.43
W37K	-0.681 ± 0.48
W37F	-0.201 ± 0.18
W37V	-0.255 ± 0.13
W37D	-0.387 ± 0.4
W37S	-0.77 ± 0.24
W37L	-0.344 ± 0.12
W37T	-0.366 ± 0.28
W37P	-0.541 ± 0.2
W37A	-0.855 ± 0.32
D25K	-0.106 ± 0.3
D25L	-0.856 ± 0.32
D25G	-0.835 ± 0.24
D25P	-0.401 ± 0.19
D25T	-0.495 ± 0.25
D25E	-0.066 ± 0.19
D25A	-0.339 ± 0.15
D25V	-0.733 ± 0.2
D25C	-0.649 ± 0.27
D25Q	-0.39 ± 0.34
D25R	-0.484 ± 0.22
D25M	-0.771 ± 0.49

Variant	abundance fitness
G36R	-0.323 ± 0.09
G36C	-0.467 ± 0.089
G36K	-0.278 ± 0.21
G36Q	-0.457 ± 0.26
G36W	-0.59 ± 0.21
G36M	-0.201 ± 0.12
G36N	-0.004 ± 0.085
G36P	-0.939 ± 0.25
G36Y	-0.276 ± 0.076
G36E	0.041 ± 0.23
G36I	-0.605 ± 0.11
G36A	-0.357 ± 0.087
G36D	-0.178 ± 0.079
G36V	-0.651 ± 0.12
G36H	-0.375 ± 0.09
E18M	-0.503 ± 0.2
E18V	-0.989 ± 0.44
E18S	-0.808 ± 0.2
E18K	-0.411 ± 0.41
E18D	-0.738 ± 0.49
E18A	-0.783 ± 0.27
E18Y	-0.582 ± 0.22
E18T	-0.838 ± 0.29
E18G	-0.439 ± 0.21

Variant	abundance fitness
E18R	-0.792 ± 0.22
E18L	-0.684 ± 0.19
E18P	-0.986 ± 0.34
E18Q	-0.395 ± 0.23
E16I	-0.552 ± 0.48
E16P	-0.191 ± 0.16
E16M	0.147 ± 0.24
E16Q	-0.007 ± 0.27
E16L	-0.403 ± 0.15
E16S	0.053 ± 0.14
E16G	-0.303 ± 0.15
E16D	-0.203 ± 0.27
E16V	-0.182 ± 0.1
E16W	-0.317 ± 0.44
E16K	-0.434 ± 0.24
E16R	0.017 ± 0.14
D28V	-0.314 ± 0.082
D28W	-0.268 ± 0.15
D28F	-0.335 ± 0.19
D28E	0.131 ± 0.11
D28H	-0.136 ± 0.25
D28A	-0.536 ± 0.19
D28G	-0.581 ± 0.13
D28T	-0.209 ± 0.14

Variant	abundance fitness
D28S	-0.368 ± 0.1
D28R	-0.515 ± 0.12
D28Y	-0.271 ± 0.16
D28L	-0.4 ± 0.12
D28C	-0.264 ± 0.25
E31R	0.039 ± 0.099
E31D	0.002 ± 0.23
E31M	-0.26 ± 0.17
E31V	-0.354 ± 0.1
E31Q	-0.23 ± 0.15
E31F	-0.584 ± 0.49
E31T	-0.087 ± 0.12
E31A	-0.052 ± 0.1
E31S	-0.33 ± 0.13
E31I	-0.116 ± 0.44
E31Y	-0.122 ± 0.25
E31L	-0.367 ± 0.12
E31N	-0.016 ± 0.22
E31W	-0.755 ± 0.2
E31P	-0.855 ± 0.46
E31K	0.109 ± 0.12
E31G	-0.187 ± 0.16
